From article PMC9486512 (Zoological Research, 2022) come the findings set out here.

Ends that are not written are not given here.

human voltage-gated sodium ion channel Nav1.7 (human), sequence (Q15858 whole entry): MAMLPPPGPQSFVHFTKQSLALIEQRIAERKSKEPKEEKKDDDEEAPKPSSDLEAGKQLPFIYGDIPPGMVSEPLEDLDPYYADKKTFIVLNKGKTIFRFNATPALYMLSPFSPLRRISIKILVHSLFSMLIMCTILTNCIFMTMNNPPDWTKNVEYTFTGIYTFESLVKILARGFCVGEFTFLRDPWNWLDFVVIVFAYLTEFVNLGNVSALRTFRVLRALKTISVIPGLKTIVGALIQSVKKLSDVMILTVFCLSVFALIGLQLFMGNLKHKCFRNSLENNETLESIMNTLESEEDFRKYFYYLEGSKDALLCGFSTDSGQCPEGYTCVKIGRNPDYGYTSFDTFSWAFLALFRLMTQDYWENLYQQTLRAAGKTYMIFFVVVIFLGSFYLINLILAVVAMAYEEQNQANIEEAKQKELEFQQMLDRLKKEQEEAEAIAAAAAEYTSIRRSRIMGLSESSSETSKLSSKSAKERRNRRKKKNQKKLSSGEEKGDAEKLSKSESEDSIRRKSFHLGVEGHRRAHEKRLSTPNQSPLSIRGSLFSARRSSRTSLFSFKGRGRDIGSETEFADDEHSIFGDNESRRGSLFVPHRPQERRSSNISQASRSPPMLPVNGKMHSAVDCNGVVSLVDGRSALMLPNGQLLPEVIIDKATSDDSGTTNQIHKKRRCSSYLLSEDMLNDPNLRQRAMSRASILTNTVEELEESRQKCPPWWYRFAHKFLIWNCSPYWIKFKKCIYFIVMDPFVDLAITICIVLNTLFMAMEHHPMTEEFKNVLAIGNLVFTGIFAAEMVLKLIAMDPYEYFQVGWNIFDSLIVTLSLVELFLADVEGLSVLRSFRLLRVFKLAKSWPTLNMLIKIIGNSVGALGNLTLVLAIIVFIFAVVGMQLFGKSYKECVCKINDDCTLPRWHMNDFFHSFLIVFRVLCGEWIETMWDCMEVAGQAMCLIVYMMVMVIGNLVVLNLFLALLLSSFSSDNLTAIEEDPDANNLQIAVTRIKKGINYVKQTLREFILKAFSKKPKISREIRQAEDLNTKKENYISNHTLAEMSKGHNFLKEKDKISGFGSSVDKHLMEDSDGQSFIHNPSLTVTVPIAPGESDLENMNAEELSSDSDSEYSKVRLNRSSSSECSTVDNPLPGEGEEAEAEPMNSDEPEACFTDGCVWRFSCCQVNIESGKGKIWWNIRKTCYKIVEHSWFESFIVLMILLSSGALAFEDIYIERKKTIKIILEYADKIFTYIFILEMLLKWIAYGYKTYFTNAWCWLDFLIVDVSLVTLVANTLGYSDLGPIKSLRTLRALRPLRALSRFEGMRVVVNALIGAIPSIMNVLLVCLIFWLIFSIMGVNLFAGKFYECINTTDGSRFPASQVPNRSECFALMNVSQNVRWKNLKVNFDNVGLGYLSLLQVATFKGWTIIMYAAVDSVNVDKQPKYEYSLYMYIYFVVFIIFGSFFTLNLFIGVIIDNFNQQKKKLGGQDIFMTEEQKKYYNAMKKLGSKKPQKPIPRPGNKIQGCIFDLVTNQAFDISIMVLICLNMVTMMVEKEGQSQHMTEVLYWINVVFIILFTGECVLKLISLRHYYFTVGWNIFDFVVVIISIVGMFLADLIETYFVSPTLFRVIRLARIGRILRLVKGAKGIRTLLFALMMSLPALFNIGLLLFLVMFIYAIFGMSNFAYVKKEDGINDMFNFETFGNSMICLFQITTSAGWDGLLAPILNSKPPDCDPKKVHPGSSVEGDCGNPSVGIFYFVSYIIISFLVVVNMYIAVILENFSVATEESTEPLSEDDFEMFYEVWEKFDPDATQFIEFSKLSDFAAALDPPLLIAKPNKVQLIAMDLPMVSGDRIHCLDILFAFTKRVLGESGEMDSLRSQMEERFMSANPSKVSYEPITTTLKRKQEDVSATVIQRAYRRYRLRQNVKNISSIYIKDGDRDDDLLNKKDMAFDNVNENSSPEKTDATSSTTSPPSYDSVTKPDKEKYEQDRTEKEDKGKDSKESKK

The first assay concerns the target human voltage-gated sodium ion channel Nav1.7 (human).
Assay: not given
Details: not given
The molecule ACLGFGEKCNPSNDKCCKSSSLVCSQAHKWCKYDL [Ca2a K27A] had an IC50 of inhibition of hNav1.7 currents, whole-cell patch clamp, HEK293T of 4.07 µM.

In the case of ACLGFGEKCNPSNDKCCKSSSLVCSQKHKWCAYDL [Ca2a K32A], the IC50 of inhibition of hNav1.7 currents, whole-cell patch clamp, HEK293T is > 30 µM.

The target is the same in the next assay.
Assay: not given
Details: not given
The source holds these as a separate data set.
As for CLGFGEKCNDKCCKSSSCSQKHKWCKY [truncated peptide T4 (from Ca2a)], the IC50 of inhibition of hNav1.7 currents, whole-cell patch clamp, HEK293T is > 100 µM.

With CLGFGEKCNDKCCKSSSVCSQKHKWCKY [truncated peptide T6 (from Ca2a)], the IC50 of inhibition of hNav1.7 currents, whole-cell patch clamp, HEK293T was > 100 µM.

In turn, CLGFGEKCNPSNDCCKSSSLVCSQKHKWCKY [truncated peptide T9 (from Ca2a)] displayed an IC50 of inhibition of hNav1.7 currents, whole-cell patch clamp, HEK293T of 67.3 µM.

CLGFGEKCNPSNKCCKSSSLVCSQKHKWCKY [truncated peptide T10 (from Ca2a)] came in with an IC50 of inhibition of hNav1.7 currents, whole-cell patch clamp, HEK293T of 53.5 µM.

For the molecule CLGFGEKCNPSDKCCKSSSLVCSQKHKWCKY [truncated peptide T11 (from Ca2a)], the IC50 of inhibition of hNav1.7 currents, whole-cell patch clamp, HEK293T turned out to be 49.2 µM.

With CLGFGEKCNPSKCCKSLVCQKHKWCKY [truncated peptide T2 (from Ca2a)], the IC50 of inhibition of hNav1.7 currents, whole-cell patch clamp, HEK293T was determined as 16.5 µM.

Regarding CLGFGEKCNPSDKCCKSSSVCSQKHKWCKY [truncated peptide T7 (from Ca2a)], the IC50 of inhibition of hNav1.7 currents, whole-cell patch clamp, HEK293T was > 100 µM.

As for CLGFGEKCNPDCCKLVCSQKWCKY [truncated peptide T12 (from Ca2a)], the IC50 of inhibition of hNav1.7 currents, whole-cell patch clamp, HEK293T was > 50 µM.

Molecule CLGFGEKCNDKCCKLVCSQHKWCKY [truncated peptide T13 (from Ca2a)] showed an IC50 of inhibition of hNav1.7 currents, whole-cell patch clamp, HEK293T of 8.89 µM.

For CLGFGEKCCCKSSSLVCSQKHKWCKY [truncated peptide T1 (from Ca2a)], the IC50 of inhibition of hNav1.7 currents, whole-cell patch clamp, HEK293T was determined as 14.7 µM.

In the case of CLGFGEKCPSNDKCCSSSLVCSQKHKWCKY [truncated peptide T8 (from Ca2a)], the IC50 of inhibition of hNav1.7 currents, whole-cell patch clamp, HEK293T is > 100 µM.

In turn, CLGFGEKCNNDKCCKSLVCQKHKWCKY [truncated peptide T3 (from Ca2a)] displayed an IC50 of inhibition of hNav1.7 currents, whole-cell patch clamp, HEK293T of 39.6 µM.

Regarding CLGFGEKCNDKCCKSSSLCSQKHKWCKY [truncated peptide T5 (from Ca2a)], the IC50 of inhibition of hNav1.7 currents, whole-cell patch clamp, HEK293T is > 100 µM.

The next assay deals with human Nav1.7 (hNav1.7) channel (Homo sapiens, UniProt Q15858). Description: Whole-cell patch-clamp inhibition of hNav1.7 currents. The class given is cell-based. The conditions noted are these: compared to Ca2a, WT hNav1.7 in HEK293T.
human Nav1.7 (hNav1.7) channel, sequence (Q15858 whole entry): as the sequence (Q15858 whole entry) above
As to “K18A: K18A mutant of Ca2a (ACLGFGEKCNPSNDKCCASSSLVCSQKHKWCKYDL; ends and bridges not checked; cysteine pairing not given here) [Peptide K18A]”, the “inhibitory activity against Nav1.7 (in words)” value is reported as “retained most of its inhibitory activity”.

The assay is the same for the next values; noted with them: ratio of mutant IC50 to WT peptide IC50, hNav1.7 in HEK293T.
For the molecule “W30A: W30A mutant of Ca2a (ACLGFGEKCNPSNDKCCKSSSLVCSQKHKACKYDL; ends and bridges not checked; cysteine pairing not given here) [Peptide W30A]”, the “fold change in IC50 / affinity for Nav1.7 compared to WT Ca2a” value is given as 20 fold.

The next assay concerns the target human voltage-gated sodium ion channel Nav1.7 (human).
Assay: not given
Details: not given
The source holds these as a separate data set.
Regarding ACLGFGEKCNPSNDKCCKSSSLVCSQKHKWCKKDL [Ca2a Y33K], the IC50 of inhibition of hNav1.7 currents, whole-cell patch clamp, HEK293T was > 20 µM.

As to ACLGFGEKCNPSNDKCCKSSSLVCSQKKKWCKYDL [Ca2a H28K], the IC50 of inhibition of hNav1.7 currents, whole-cell patch clamp, HEK293T was > 20 µM.

Regarding ACLGFGEKCNPSNDKCCKSSSLVCSQKHKKCKYDL [Ca2a W30K], the IC50 of inhibition of hNav1.7 currents, whole-cell patch clamp, HEK293T is > 20 µM.

Molecule ACLGFGEKCNPSNDKCCKSSSLVCSQKRKWCKYDL [Ca2a H28R] gave an IC50 of inhibition of hNav1.7 currents, whole-cell patch clamp, HEK293T of 14.9 µM.

Regarding ACLGKGEKCNPSNDKCCKSSSLVCSQKHKWCKYDL [Ca2a F5K], the IC50 of inhibition of hNav1.7 currents, whole-cell patch clamp, HEK293T is > 20 µM.
